US20260176314

T1: FLAG_SERPINB14_HiBiT
T1 chain: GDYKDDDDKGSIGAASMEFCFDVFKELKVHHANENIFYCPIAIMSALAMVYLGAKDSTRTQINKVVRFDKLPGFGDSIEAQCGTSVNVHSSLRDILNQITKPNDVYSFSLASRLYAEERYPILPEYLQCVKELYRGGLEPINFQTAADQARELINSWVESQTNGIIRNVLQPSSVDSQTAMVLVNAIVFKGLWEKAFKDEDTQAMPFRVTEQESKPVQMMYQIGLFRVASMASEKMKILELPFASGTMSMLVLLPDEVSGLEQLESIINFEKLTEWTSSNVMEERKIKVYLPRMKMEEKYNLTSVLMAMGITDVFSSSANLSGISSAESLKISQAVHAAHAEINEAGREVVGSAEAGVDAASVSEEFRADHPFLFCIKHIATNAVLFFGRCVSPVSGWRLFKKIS


Tests used:
[1] = molecular target: FLAG_TRX_SPP1 (G158-N314)_HiBiT
FLAG_SERPINB14_HiBiT = molecular target: T1, FLAG_SERPINB14_HiBiT

Sequence of FLAG_TRX_SPP1 (G158-N314)_HiBiT (chain, as listed by the source): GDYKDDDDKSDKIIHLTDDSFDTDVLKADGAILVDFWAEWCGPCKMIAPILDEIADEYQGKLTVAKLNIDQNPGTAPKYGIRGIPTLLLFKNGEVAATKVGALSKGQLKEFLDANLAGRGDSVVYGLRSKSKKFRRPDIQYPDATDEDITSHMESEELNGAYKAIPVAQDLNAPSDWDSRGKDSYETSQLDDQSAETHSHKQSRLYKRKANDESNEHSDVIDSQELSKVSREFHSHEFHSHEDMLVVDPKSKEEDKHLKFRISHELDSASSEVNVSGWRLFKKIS

Protein	Phosphorylation [1]	phosphorylation sites detected by LC-MS/MS after co-expression in Pichia pastoris (FLAG_SERPINB14_HiBiT)
ScMNN1(M1-A42)_Fam20c(D93-R584)_FLAG (protein) MLALRRFILNQRSLRSCTIPILVGALIIILVLFQLVTHRNDADFSSDPSSNLSSHSLEKLPPAAEPAERALRGRDPGALRPHDPAHRPLLRDPGPRRSESPPGPGGDASLLARLFEHPLYRVAVPPLTEEDVLFNVNSDTRLSPKAAENPDWPHAGAEGAEFLSPGEAAVDSYPNWLKFHIGINRYELYSRHNPAIEALLHDLSSQRITSVAMKSGGTQLKLIMTFQNYGQALFKPMKQTREQETPPDFFYFSDYERHNAEIAAFHLDRILDFRRVPPVAGRMVNMTKEIRDVTRDKKLWRTFFISPANNICFYGECSYYCSTEHALCGKPDQIEGSLAAFLPDLSLAKRKTWRNPWRRSYHKRKKAEWEVDPDYCEEVKQTPPYDSSHRILDVMDMTIFDFLMGNMDRHHYETFEKFGNETFIIHLDNGRGFGKYSHDELSILVPLQQCCRIRKSTYLRLQLLAKEEYKLSLLMAESLRGDQVAPVLYQPHLEALDRRLRVVLKAVRDCVERNGLHSVVDDDLDTEHRAASARDYKDDDDK	Yes	–
ScMNN2(M1-S36)_Fam20c(R32-R584)_FLAG (protein) MLLTKRFSKLFKLTFIVLILCGLFVITNKYMDENTSRLERRGARPSGEPGCSCAQPAAEVAAPGWAQVRGRPGEPPAASSAAGDAGWPNKHTLRILQDFSSDPSSNLSSHSLEKLPPAAEPAERALRGRDPGALRPHDPAHRPLLRDPGPRRSESPPGPGGDASLLARLFEHPLYRVAVPPLTEEDVLFNVNSDTRLSPKAAENPDWPHAGAEGAEFLSPGEAAVDSYPNWLKFHIGINRYELYSRHNPAIEALLHDLSSQRITSVAMKSGGTQLKLIMTFQNYGQALFKPMKQTREQETPPDFFYFSDYERHNAEIAAFHLDRILDFRRVPPVAGRMVNMTKEIRDVTRDKKLWRTFFISPANNICFYGECSYYCSTEHALCGKPDQIEGSLAAFLPDLSLAKRKTWRNPWRRSYHKRKKAEWEVDPDYCEEVKQTPPYDSSHRILDVMDMTIFDFLMGNMDRHHYETFEKFGNETFIIHLDNGRGFGKYSHDELSILVPLQQCCRIRKSTYLRLQLLAKEEYKLSLLMAESLRGDQVAPVLYQPHLEALDRRLRVVLKAVRDCVERNGLHSVVDDDLDTEHRAASARDYKDDDDK	Yes	–
ScKRE(M1-I58)_Fam20c(R32-R584)_FLAG (protein) MALFLSKRLLRFTVIAGAVIVLLLTLNSNSRTQQYIPSSISAAFDFTSGSISPEQQVIRLERRGARPSGEPGCSCAQPAAEVAAPGWAQVRGRPGEPPAASSAAGDAGWPNKHTLRILQDFSSDPSSNLSSHSLEKLPPAAEPAERALRGRDPGALRPHDPAHRPLLRDPGPRRSESPPGPGGDASLLARLFEHPLYRVAVPPLTEEDVLFNVNSDTRLSPKAAENPDWPHAGAEGAEFLSPGEAAVDSYPNWLKFHIGINRYELYSRHNPAIEALLHDLSSQRITSVAMKSGGTQLKLIMTFQNYGQALFKPMKQTREQETPPDFFYFSDYERHNAEIAAFHLDRILDFRRVPPVAGRMVNMTKEIRDVTRDKKLWRTFFISPANNICFYGECSYYCSTEHALCGKPDQIEGSLAAFLPDLSLAKRKTWRNPWRRSYHKRKKAEWEVDPDYCEEVKQTPPYDSSHRILDVMDMTIFDFLMGNMDRHHYETFEKFGNETFIIHLDNGRGFGKYSHDELSILVPLQQCCRIRKSTYLRLQLLAKEEYKLSLLMAESLRGDQVAPVLYQPHLEALDRRLRVVLKAVRDCVERNGLHSVVDDDLDTEHRAASARDYKDDDDK	Yes	–
ScMNN2(M1-S150)_Fam20c(R32-R584)_FLAG (protein) MLLTKRFSKLFKLTFIVLILCGLFVITNKYMDENTSVKEYKEYLDRYVQSYSNKYSSSSDAASADDSTPLRDNDEAGNEKLKSFYNNVFNFLMVDSPKGSTAKQYNEACLLKGDIGDRPDHYKDLYKLSAKELSKCLELSPDEVASLTKSRLERRGARPSGEPGCSCAQPAAEVAAPGWAQVRGRPGEPPAASSAAGDAGWPNKHTLRILQDFSSDPSSNLSSHSLEKLPPAAEPAERALRGRDPGALRPHDPAHRPLLRDPGPRRSESPPGPGGDASLLARLFEHPLYRVAVPPLTEEDVLFNVNSDTRLSPKAAENPDWPHAGAEGAEFLSPGEAAVDSYPNWLKFHIGINRYELYSRHNPAIEALLHDLSSQRITSVAMKSGGTQLKLIMTFQNYGQALFKPMKQTREQETPPDFFYFSDYERHNAEIAAFHLDRILDFRRVPPVAGRMVNMTKEIRDVTRDKKLWRTFFISPANNICFYGECSYYCSTEHALCGKPDQIEGSLAAFLPDLSLAKRKTWRNPWRRSYHKRKKAEWEVDPDYCEEVKQTPPYDSSHRILDVMDMTIFDFLMGNMDRHHYETFEKFGNETFIIHLDNGRGFGKYSHDELSILVPLQQCCRIRKSTYLRLQLLAKEEYKLSLLMAESLRGDQVAPVLYQPHLEALDRRLRVVLKAVRDCVERNGLHSVVDDDLDTEHRAASARDYKDDDDK	Yes	–
ScMNN2(M1-P97)_Fam20c(R32-R584)_FLAG (protein) MLLTKRFSKLFKLTFIVLILCGLFVITNKYMDENTSVKEYKEYLDRYVQSYSNKYSSSSDAASADDSTPLRDNDEAGNEKLKSFYNNVFNFLMVDSPRLERRGARPSGEPGCSCAQPAAEVAAPGWAQVRGRPGEPPAASSAAGDAGWPNKHTLRILQDFSSDPSSNLSSHSLEKLPPAAEPAERALRGRDPGALRPHDPAHRPLLRDPGPRRSESPPGPGGDASLLARLFEHPLYRVAVPPLTEEDVLFNVNSDTRLSPKAAENPDWPHAGAEGAEFLSPGEAAVDSYPNWLKFHIGINRYELYSRHNPAIEALLHDLSSQRITSVAMKSGGTQLKLIMTFQNYGQALFKPMKQTREQETPPDFFYFSDYERHNAEIAAFHLDRILDFRRVPPVAGRMVNMTKEIRDVTRDKKLWRTFFISPANNICFYGECSYYCSTEHALCGKPDQIEGSLAAFLPDLSLAKRKTWRNPWRRSYHKRKKAEWEVDPDYCEEVKQTPPYDSSHRILDVMDMTIFDFLMGNMDRHHYETFEKFGNETFIIHLDNGRGFGKYSHDELSILVPLQQCCRIRKSTYLRLQLLAKEEYKLSLLMAESLRGDQVAPVLYQPHLEALDRRLRVVLKAVRDCVERNGLHSVVDDDLDTEHRAASARDYKDDDDK	Yes	–
ScMNN6(M1-P30)_Fam20c(R32-R584)_FLAG (protein) RLERRGARPSGEPGCSCAQPAAEVAAPGWAQVRGRPGEPPAASSAAGDAGWPNKHTLRILQDFSSDPSSNLSSHSLEKLPPAAEPAERALRGRDPGALRPHDPAHRPLLRDPGPRRSESPPGPGGDASLLARLFEHPLYRVAVPPLTEEDVLFNVNSDTRLSPKAAENPDWPHAGAEGAEFLSPGEAAVDSYPNWLKFHIGINRYELYSRHNPAIEALLHDLSSQRITSVAMKSGGTQLKLIMTFQNYGQALFKPMKQTREQETPPDFFYFSDYERHNAEIAAFHLDRILDFRRVPPVAGRMVNMTKEIRDVTRDKKLWRTFFISPANNICFYGECSYYCSTEHALCGKPDQIEGSLAAFLPDLSLAKRKTWRNPWRRSYHKRKKAEWEVDPDYCEEVKQTPPYDSSHRILDVMDMTIFDFLMGNMDRHHYETFEKFGNETFIIHLDNGRGFGKYSHDELSILVPLQQCCRIRKSTYLRLQLLAKEEYKLSLLMAESLRGDQVAPVLYQPHLEALDRRLRVVLKAVRDCVERNGLHSVVDDDLDTEHRAASARDYKDDDDK	Yes	–
ScKRE2(M1-S80)_Fam20c(D93-R584)_FLAG (protein) MALFLSKRLLRFTVIAGAVIVLLLTLNSNSRTQQYIPSSISAAFDFTSGSISPEQQVISEENDAKKLEQSALNSEASEDSDFSSDPSSNLSSHSLEKLPPAAEPAERALRGRDPGALRPHDPAHRPLLRDPGPRRSESPPGPGGDASLLARLFEHPLYRVAVPPLTEEDVLFNVNSDTRLSPKAAENPDWPHAGAEGAEFLSPGEAAVDSYPNWLKFHIGINRYELYSRHNPAIEALLHDLSSQRITSVAMKSGGTQLKLIMTFQNYGQALFKPMKQTREQETPPDFFYFSDYERHNAEIAAFHLDRILDFRRVPPVAGRMVNMTKEIRDVTRDKKLWRTFFISPANNICFYGECSYYCSTEHALCGKPDQIEGSLAAFLPDLSLAKRKTWRNPWRRSYHKRKKAEWEVDPDYCEEVKQTPPYDSSHRILDVMDMTIFDFLMGNMDRHHYETFEKFGNETFIIHLDNGRGFGKYSHDELSILVPLQQCCRIRKSTYLRLQLLAKEEYKLSLLMAESLRGDQVAPVLYQPHLEALDRRLRVVLKAVRDCVERNGLHSVVDDDLDTEHRAASARDYKDDDDK	Yes	–
Fam20c(M1-R584)_MYC (protein) MKMMLVRRFRVLILMVFLVACALHIALDLLPRLERRGARPSGEPGCSCAQPAAEVAAPGWAQVRGRPGEPPAASSAAGDAGWPNKHTLRILQDFSSDPSSNLSSHSLEKLPPAAEPAERALRGRDPGALRPHDPAHRPLLRDPGPRRSESPPGPGGDASLLARLFEHPLYRVAVPPLTEEDVLFNVNSDTRLSPKAAENPDWPHAGAEGAEFLSPGEAAVDSYPNWLKFHIGINRYELYSRHNPAIEALLHDLSSQRITSVAMKSGGTQLKLIMTFQNYGQALFKPMKQTREQETPPDFFYFSDYERHNAEIAAFHLDRILDFRRVPPVAGRMVNMTKEIRDVTRDKKLWRTFFISPANNICFYGECSYYCSTEHALCGKPDQIEGSLAAFLPDLSLAKRKTWRNPWRRSYHKRKKAEWEVDPDYCEEVKQTPPYDSSHRILDVMDMTIFDFLMGNMDRHHYETFEKFGNETFIIHLDNGRGFGKYSHDELSILVPLQQCCRIRKSTYLRLQLLAKEEYKLSLLMAESLRGDQVAPVLYQPHLEALDRRLRVVLKAVRDCVERNGLHSVVDDDLDTEHRAASAREQKLISEEDL	Yes	S69, T76, T92, S99, S165, T202, S206, and S345
